Laboratory results from patent publication US20240041987A1, “NOVEL BIOACTIVE PEPTIDE COMBINATIONS AND USES THEREOF” (COLZYX AB, priority 2020, published 2024).
Where two headings read alike, the source gives them in different places.

Experiments:
microorganisms = conditions: cited from earlier work
wound healing = conditions: cited from earlier work
[1] = 25 ± 2° C./60% RH ± 5%, 1 month
[2] = 25 ± 2° C./60% RH ± 5%, 3 months

AAKPVATKPEVPRPQAAKPA (AAK20) [collagen VI derived polypeptide]
Antimicrobial activity? (microorganisms): Yes

DVNVFAIGVEDADEGALKEIASEPLNMHMFNL (DVN32) [collagen VI derived polypeptide]
Wound healing activity? (wound healing): No | Antimicrobial activity? (microorganisms): No

EQNFHKARRFVEQVARRLTL (EQN20) [collagen VI derived polypeptide]
Antimicrobial activity? (microorganisms): Yes

FFLKDFSTKRQIIDAINKVVYKGGR (FFL25) [collagen VI derived polypeptide]
Wound healing activity? (wound healing): have wound healing properties and Yes | Antimicrobial activity? (microorganisms): Yes

FTKRFIDNLRDRYYRCDRNL (FTK20) [collagen VI derived polypeptide]
Antimicrobial activity? (microorganisms): Yes

FYLKTYRSQAPVLDAIRRLRLRGGS (FYL25) [collagen VI derived polypeptide]
Wound healing activity? (wound healing): have wound healing properties and Yes | Antimicrobial activity? (microorganisms): Yes

GFAHIRDFVSRIVRRLNIGP (GFA20) [collagen VI derived polypeptide]
Antimicrobial activity? (microorganisms): Yes

GVRPDGFAHIRDFVSRIVRRLNIGPSKV (GVR28) [peptide derived from collagen VI alpha-3 chain]
Wound healing activity? (wound healing): have wound healing properties and Yes | Appearance (25 ± 2° C./60% RH ± 5%, 0 D): White powder | Identity (RP-HPLC) (25 ± 2° C./60% RH ± 5%, 0 D): Retention Time Conforms | Purity (RP-HPLC) (25 ± 2° C./60% RH ± 5%, 0 D): 98.1% | Related Impurities (by RRT), Specified Impurity %: RRT = 0.80*, RRT = 0.81* Total (25 ± 2° C./60% RH ± 5%, 0 D): 0.07% | Related Impurities (by RRT), Specified Impurity %: RRT = 0.96* (25 ± 2° C./60% RH ± 5%, 0 D): 0.38% | Related Impurities (by RRT), Specified Impurity %: RRT = 1.04 (25 ± 2° C./60% RH ± 5%, 0 D): 0.56% | Related Impurities (by RRT), Specified Impurity %: RRT = 1.13* (25 ± 2° C./60% RH ± 5%, 0 D): 0.22% | Unspecified Impurity % (Report ≥0.10%): RRT = 0.94 (25 ± 2° C./60% RH ± 5%, 0 D): 0.15% | Unspecified Impurity % (Report ≥0.10%): RRT = 1.09 (25 ± 2° C./60% RH ± 5%, 0 D): 0.32% | Unspecified Impurity % ≤0.50% (25 ± 2° C./60% RH ± 5%, 0 D): Conforms | Water Content (KF) (25 ± 2° C./60% RH ± 5%, 0 D): 4.2% | Appearance [1]: White powder | Identity (RP-HPLC) [1]: Retention Time Conforms | Purity (RP-HPLC) [1]: 97.7% | Related Impurities (by RRT), Specified Impurity %: RRT = 0.82* [1]: 0.07% | Related Impurities (by RRT), Specified Impurity %: RRT = 0.97 [1]: 0.40% | Related Impurities (by RRT), Specified Impurity %: RRT = 1.04 [1]: 0.57% | Related Impurities (by RRT), Specified Impurity %: RRT = 1.12 [1]: 0.49% | Unspecified Impurity % (Report ≥0.10%): RRT = 0.95 [1]: 0.16% | Unspecified Impurity % (Report ≥0.10%): RRT = 1.08 [1]: 0.32% | Unspecified Impurity % ≤0.50% [1]: Conforms | Water Content (KF) [1]: 3.9% | Appearance [2]: White powder | Identity (RP-HPLC) [2]: Retention Time Conforms | Purity (RP-HPLC) [2]: 97.3% | Related Impurities (by RRT), Specified Impurity %: RRT = 0.83* [2]: 0.12% | Related Impurities (by RRT), Specified Impurity %: RRT = 0.97 [2]: 0.41% | Related Impurities (by RRT), Specified Impurity %: RRT = 1.04 [2]: 0.56% | Related Impurities (by RRT), Specified Impurity %: RRT = 1.12 [2]: 0.77% | Unspecified Impurity % (Report ≥0.10%): RRT = 0.95 [2]: 0.17% | Unspecified Impurity % (Report ≥0.10%): RRT = 1.08 [2]: 0.32% | Unspecified Impurity % ≤0.50% [2]: conforms | Water Content (KF) [2]: 3.9% | change in purity during the initial 3 months (stored at 25° C.): slight decrease in purity | Appearance (−20 ± 5° C., 0 D): White powder | Identity (RP-HPLC) (−20 ± 5° C., 0 D): Retention Time Conforms | Purity (RP-HPLC) (−20 ± 5° C., 0 D): 98.10% | Related Impurities (by RRT), Specified Impurity %: RRT = 0.80*, RRT = 0.81* Total (−20 ± 5° C., 0 D): 0.07% | Related Impurities (by RRT), Specified Impurity %: RRT = 0.96* (−20 ± 5° C., 0 D): 0.38% | Related Impurities (by RRT), Specified Impurity %: RRT = 1.04 (−20 ± 5° C., 0 D): 0.56% | Related Impurities (by RRT), Specified Impurity %: RRT = 1.13* (−20 ± 5° C., 0 D): 0.22% | Unspecified Impurity % (Report ≥0.10%): RRT = 0.94 (−20 ± 5° C., 0 D): 0.15% | Unspecified Impurity % (Report ≥0.10%): RRT = 1.09 (−20 ± 5° C., 0 D): 0.32% | Unspecified Impurity % ≤0.50% (−20 ± 5° C., 0 D): conforms | Water Content (KF) (−20 ± 5° C., 0 D): 4.2% | Appearance (−20 ± 5° C., 3 months): White powder | Identity (RP-HPLC) (−20 ± 5° C., 3 months): Retention Time Conforms | Purity (RP-HPLC) (−20 ± 5° C., 3 months): 98.10% | Related Impurities (by RRT), Specified Impurity %: RRT = 0.83* (−20 ± 5° C., 3 months): 0.04% | Related Impurities (by RRT), Specified Impurity %: RRT = 0.97 (−20 ± 5° C., 3 months): 0.38% | Related Impurities (by RRT), Specified Impurity %: RRT = 1.04 (−20 ± 5° C., 3 months): 0.54% | Related Impurities (by RRT), Specified Impurity %: RRT = 1.12 (−20 ± 5° C., 3 months): 0.20% | Unspecified Impurity % (Report ≥0.10%): RRT = 0.95 (−20 ± 5° C., 3 months): 0.17% | Unspecified Impurity % (Report ≥0.10%): RRT = 1.08 (−20 ± 5° C., 3 months): 0.31% | Unspecified Impurity % ≤0.50% (−20 ± 5° C., 3 months): conforms | Water Content (KF) (−20 ± 5° C., 3 months): 1.8% | Antimicrobial activity? (microorganisms): Yes

KGFESKVDAILNRISQMHRV (KGF20) [collagen VI derived polypeptide]
Antimicrobial activity? (microorganisms): Yes

KPEILNLVKRMKIKTGKALN (KPE20) [collagen VI derived polypeptide]
Antimicrobial activity? (microorganisms): Yes

LRLKPYGALVDKVKSFTKRF (LRL20) [collagen VI derived polypeptide]
Antimicrobial activity? (microorganisms): Yes

QAPVLDAIRRLRLRGGSPLN (QAP20) [collagen VI derived polypeptide]
Antimicrobial activity? (microorganisms): Yes

RDALKSSVDAVKYFGKGTYT (RDA20) [collagen VI derived polypeptide]
Antimicrobial activity? (microorganisms): Yes

RKVAVFFSNTPTRASPQLRE (RKV20) [collagen VI derived polypeptide]
Antimicrobial activity? (microorganisms): Yes

SFVARNTFKRVRNGFLMRKVAVFFSNTPTRASP (SFV33) [peptide derived from collagen VI alpha-3 chain]
Wound healing activity? (wound healing): No | Appearance (25 ± 2° C./60% RH ± 5%, 0 D): White powder | Identity (RP-HPLC) (25 ± 2° C./60% RH ± 5%, 0 D): Retention Time Conforms | Impurity (Report all ≥0.10%): RRT = 0.65 (25 ± 2° C./60% RH ± 5%, 0 D): 0.17% | Impurity (Report all ≥0.10%): RRT = 1.02 (25 ± 2° C./60% RH ± 5%, 0 D): 0.23% | No other individual impurity ≥0.50% (25 ± 2° C./60% RH ± 5%, 0 D): conforms | Purity (RP-HPLC) (25 ± 2° C./60% RH ± 5%, 0 D): 98.1% | Related Impurities (by RRT), Specified Impurity %: RRT = 0.90 (25 ± 2° C./60% RH ± 5%, 0 D): 0.26% | Related Impurities (by RRT), Specified Impurity %: RRT = 0.95 (25 ± 2° C./60% RH ± 5%, 0 D): 0.14% | Related Impurities (by RRT), Specified Impurity %: RRT = 0.97 (25 ± 2° C./60% RH ± 5%, 0 D): 0.47% | Water Content (KF) (25 ± 2° C./60% RH ± 5%, 0 D): 4.7% | Appearance [1]: White powder | Identity (RP-HPLC) [1]: Retention Time Conforms | Impurity (Report all ≥0.10%): RRT = 0.66 [1]: 0.13% | Impurity (Report all ≥0.10%): RRT = 0.85 [1]: 0.11% | Impurity (Report all ≥0.10%): RRT = 1.02 [1]: 0.31% | Impurity (Report all ≥0.10%): RRT = 1.04 [1]: 0.17% | Impurity (Report all ≥0.10%): RRT = 1.08 [1]: 0.24% | No other individual impurity ≥0.50% [1]: conforms | Purity (RP-HPLC) [1]: 97.8% | Related Impurities (by RRT), Specified Impurity %: RRT = 0.90 [1]: 0.24% | Related Impurities (by RRT), Specified Impurity %: RRT = 0.95 [1]: 0.13% | Related Impurities (by RRT), Specified Impurity %: RRT = 0.97 [1]: 0.47% | Water Content (KF) [1]: 6.8% | Appearance [2]: White powder | Identity (RP-HPLC) [2]: Retention Time Conforms | Impurity (Report all ≥0.10%): RRT = 0.62 [2]: 0.15% | Impurity (Report all ≥0.10%): RRT = 0.84 [2]: 0.28% | No other individual impurity ≥0.50% [2]: Not conforms * | Purity (RP-HPLC) [2]: 96.9% | Related Impurities (by RRT), Specified Impurity %: RRT = 0.90 [2]: 0.20% | Related Impurities (by RRT), Specified Impurity %: RRT = 0.95 [2]: 0.09% | Related Impurities (by RRT), Specified Impurity %: RRT = 0.97 [2]: 0.42% | Water Content (KF) [2]: 8.4% | change in purity during the initial 3 months (stored at 25° C.): slight decrease in purity | new impurities (stored at 25° C., at 3 months): some new impurities were detected | change of water content (stored at 25° C., over the 3 months): increased | Appearance (−20 ± 5° C., 0 D): White powder | Identity (RP-HPLC) (−20 ± 5° C., 0 D): Retention Time Conforms | Impurity (Report all ≥0.10%): RRT = 0.65 (−20 ± 5° C., 0 D): 0.17% | Impurity (Report all ≥0.10%): RRT = 1.02 (−20 ± 5° C., 0 D): 0.23% | No other individual impurity ≥0.50% (−20 ± 5° C., 0 D): conforms | Purity (RP-HPLC) (−20 ± 5° C., 0 D): 98.1% | Related Impurities (by RRT), Specified Impurity %: RRT = 0.90 (−20 ± 5° C., 0 D): 0.26% | Related Impurities (by RRT), Specified Impurity %: RRT = 0.95 (−20 ± 5° C., 0 D): 0.14% | Related Impurities (by RRT), Specified Impurity %: RRT = 0.97 (−20 ± 5° C., 0 D): 0.47% | Water Content (KF) (−20 ± 5° C., 0 D): 4.7% | Appearance (−20 ± 5° C., 1 month): White powder | Identity (RP-HPLC) (−20 ± 5° C., 1 month): Retention Time Conforms | Impurity (Report all ≥0.10%): RRT = 1.03 (−20 ± 5° C., 1 month): 0.24% | No other individual impurity ≥0.50% (−20 ± 5° C., 1 month): conforms | Purity (RP-HPLC) (−20 ± 5° C., 1 month): 98.3% | Related Impurities (by RRT), Specified Impurity %: RRT = 0.90 (−20 ± 5° C., 1 month): 0.23% | Related Impurities (by RRT), Specified Impurity %: RRT = 0.95 (−20 ± 5° C., 1 month): 0.10% | Related Impurities (by RRT), Specified Impurity %: RRT = 0.98 (−20 ± 5° C., 1 month): 0.44% | Water Content (KF) (−20 ± 5° C., 1 month): 4.9% | Antimicrobial activity? (microorganisms): Yes

TKRFAKRLAERFLTAGRTDP (TKR20) [collagen VI derived polypeptide]
Antimicrobial activity? (microorganisms): Yes

TSSPTSNPVTTTKPVTTTKPVTTTTKPVTTTTKPVT (TSS36) [collagen VI derived polypeptide]
Antimicrobial activity? (microorganisms): Yes

TTKPVTTTKPVTTTTKPVTT (TTK20) [collagen VI derived polypeptide]
Antimicrobial activity? (microorganisms): Yes

VAAKPVATKMAVRPPVAVKP (VAA20) [collagen VI derived polypeptide]
Antimicrobial activity? (microorganisms): Yes

VTTEIRFADSKRKSVLLDKIKNLQVALTSK (VTT30) [collagen VI derived polypeptide]
Wound healing activity? (wound healing): have wound healing properties and Yes | Antimicrobial activity? (microorganisms): Yes

VVHAINAIVRSPRGGARRHA (VVH20) [collagen VI derived polypeptide]
Antimicrobial activity? (microorganisms): Yes

YDRLIKESRRQKTRVFAVVI (YDR20) [collagen VI derived polypeptide]
Antimicrobial activity? (microorganisms): Yes

B1: AAAKPAPAKPVAAKPVATKMATVRPPVAVKPATAAKPVAAKPAAVRPPAAAAAKPVATKPEVPRPQAAKPAATKPA (peptide)
chain: AAAKPAPAKPVAAKPVATKMATVRPPVAVKPATAAKPVAAKPAAVRPPAAAAAKPVATKPEVPRPQAAKPAATKPA
modifications: AAA76
notes: collagen VI derived polypeptide
Antimicrobial activity? (microorganisms): Yes
